Values joined by “and” are separate entries in the source; they are usually repeats but may differ in a detail not shown here. Equal entries are not always repeated. Blank lines part the entries; values can stand above or below the substance they belong to.
What was measured:
AgR (Rhizobium NT-26) = assay: SEC; Superose 6; 50 mM Tris-HCl pH 8.0, 30-500 mM NaCl, 1 mM βME; peak positions invariant irrespective of loading concentrations
[1] = biological target: BphP1 kinase core (BphP1-HK, residues 462-703) (Rhizobium NT-26); assay: as above
[2] = biological target: ExsG (wild-type, full-length) (Rhizobium NT-26); assay: AUC; sedimentation velocity; 50 mM Tris-HCl pH 8.0, 250 mM or 30 mM NaCl; seven concentrations 0.2-2 mg/ml; 40,000 rpm, 20°C; c(s) in SEDFIT
[3] = biological target: ExsG (wild-type, full-length) (Rhizobium NT-26); assay: AUC; sedimentation equilibrium; 50 mM Tris-HCl pH 8.0, 250 mM NaCl; six concentrations 0.1-1.5 mg/ml; 7, 11, 16, 24 krpm, 20°C; SEDFIT and SEDPHAT
[4] = biological target: ExsG (wild-type, full-length) (Rhizobium NT-26); assay: native MS; nESI-MS at raised ionic strength: 400, 600 and 800 mM ammonium acetate pH 8, 0.1 mM DTT; 30-40 μM (monomer); disassembly of the hexamer
[5] = biological target: ExsG (wild-type, full-length) (Rhizobium NT-26); assay: native MS; nESI-MS and IM-MS; 150 mM ammonium acetate pH 8, 0.1 mM DTT; 30-40 μM (monomer); native, phosphoramidate-treated or AMP-PNP-treated samples
[6] = biological target: ExsG (wild-type, full-length) (Rhizobium NT-26); assay: as above; remark: listed apart in the source
[7] = biological target: ExsG phosphorylated on Asp62 by phosphoramidate (Rhizobium NT-26); assay: as above
[8] = biological target: ExsG receiver domain (ExsG-REC, residues 1-129) (Rhizobium NT-26); assay: SEC; Superose 6; 50 mM Tris-HCl pH 8.0, 30-500 mM NaCl, 1 mM βME; peak positions invariant irrespective of loading concentrations

Substance: AgR (natural protein)
stoichiometry N (AgR (Rhizobium NT-26)): 2

Substance: BphP1 kinase core (BphP1-HK, residues 462-703) (domain or fragment)
stoichiometry N [1]: 2

Substance: ExsG receiver domain (ExsG-REC, residues 1-129) (domain or fragment)
stoichiometry N [8]: 2

Results, then the substance that gave them:

stoichiometry N [2]: 6
stoichiometry N [3]: 6
stoichiometry N [4]: 2 and 4
stoichiometry N [5]: 6
stoichiometry N [6]: 2
Substance: ExsG (wild-type, full-length) (enzyme)

stoichiometry N [7]: 6
Substance: ExsG phosphorylated on Asp62 by phosphoramidate (enzyme)
